Assays:
HLA-A*02:06 = experiment: IEDB peptide-MHC binding, purified MHC/competitive/radioactivity; filed as Kd, often an IC50 or EC50 that approximates it; ≥ and ≤ were set here for values at or beyond the usual limits of such assays
HLA-A*26:01 = experiment: as above
HLA-A*68:02 = experiment: as above
HLA-A*30:01 = experiment: as above; conditions: source organism: Vaccinia virus WR
HLA-A*32:01 = experiment: as above
HLA-B*08:01 = experiment: as above
HLA-B*15:01 = experiment: as above
HLA-B*15:03 = experiment: as above
HLA-B*07:02 = experiment: as above
HLA-B*35:01 = experiment: as above
HLA-B*57:01 [1] = experiment: IEDB peptide-MHC binding, purified MHC/direct/fluorescence; filed as Kd, often an IC50 or EC50 that approximates it; ≥ and ≤ were set here for values at or beyond the usual limits of such assays; conditions: source organism: Entamoeba histolytica HM-1:IMSS
HLA-B*58:01 = experiment: as above; conditions: source organism: Entamoeba histolytica HM-1:IMSS
HLA-A*03:01 = experiment: IEDB peptide-MHC binding, purified MHC/competitive/fluorescence; ≥ and ≤ were set here for values at or beyond the usual limits of such assays
HLA-A*11:01 = experiment: as above
HLA-A*24:02 = experiment: as above
HLA-B*51:01 = experiment: IEDB peptide-MHC binding, purified MHC/competitive/radioactivity; filed as Kd, often an IC50 or EC50 that approximates it; ≥ and ≤ were set here for values at or beyond the usual limits of such assays
HLA-B*53:01 = experiment: as above
HLA-A*02:01 [2] = experiment: IEDB peptide-MHC binding, purified MHC/competitive/fluorescence; ≥ and ≤ were set here for values at or beyond the usual limits of such assays
HLA-B*57:01 [3] = experiment: IEDB peptide-MHC binding, purified MHC/competitive/radioactivity; filed as Kd, often an IC50 or EC50 that approximates it; ≥ and ≤ were set here for values at or beyond the usual limits of such assays; conditions: source organism: Murray valley encephalitis virus (strain MVE-1-51)
HLA-A*31:01 = experiment: as above; conditions: source organism: Vaccinia virus WR
HLA-A*33:01 = experiment: as above; conditions: source organism: Vaccinia virus WR
HLA-A*68:01 = experiment: as above; conditions: source organism: Vaccinia virus WR
HLA-A*02:01 [4] = experiment: as above; conditions: source organism: Trypanosoma cruzi
HLA-A*02:02 = experiment: as above; conditions: source organism: Trypanosoma cruzi
HLA-A*02:03 = experiment: as above; conditions: source organism: Trypanosoma cruzi
[5] = source organism: Dengue virus 4 Philippines/H241/1956
[6] = source organism: Vaccinia virus WR
[7] = source organism: Zaire ebolavirus
[8] = source organism: Vaccinia virus Copenhagen
[9] = source organism: Dengue virus 2 Peru/IQT2913/1996
[10] = source organism: Dengue virus 3 Martinique/1243/1999
[11] = source organism: Vaccinia virus
[12] = source organism: Dengue virus 2 Jamaica/1409/1983
[13] = source organism: Sudan ebolavirus
[14] = source organism: Trypanosoma cruzi

Sequence TTANWLWAL has a Kd (HLA-A*02:06; [5]) of 0.00593 µM, a Kd (HLA-A*26:01; [5]) of 3.08 µM and a Kd (HLA-A*68:02; [5]) of 0.00636 µM.
For RLHSNTILK, the Kd (HLA-A*30:01) was 0.0485 µM, the Kd (HLA-A*32:01; [6]) was 6.35 µM and the Kd (HLA-B*08:01; [6]) was no less than 38.6 µM. It also gave a Kd (HLA-B*15:01; [6]) of 2.22 µM and a Kd (HLA-B*15:03; [6]) of 8.54 µM.
YAFSKYMSF was tested, and the Kd (HLA-B*15:01; [6]) was 0.00899 µM and the Kd (HLA-B*15:03; [6]) was 0.00177 µM.
RPLSEKEENM showed a Kd (HLA-B*07:02; [5]) of 2.03 µM and a Kd (HLA-B*35:01; [5]) of no less than 30.1 µM.
Work on TAYEKLWYI yielded a Kd (HLA-B*57:01 [1]) of 0.65 µM and a Kd (HLA-B*58:01) of 0.13 µM.
Work on DQEKKILMN yielded an IC50 (HLA-A*03:01; [7]) of no less than 386 µM, an IC50 (HLA-A*11:01; [7]) of no less than 193 µM and an IC50 (HLA-A*24:02; [7]) of no less than 303 µM.
With SLNSIFNTF the Kd (HLA-A*32:01; [8]) was 0.0138 µM, the Kd (HLA-B*08:01; [8]) was no less than 30.6 µM and the Kd (HLA-B*15:01; [8]) was 0.00222 µM. For the same sequence, the Kd (HLA-B*15:03; [8]) was 0.209 µM.
Work on PNRSTKGGQ yielded an IC50 (HLA-A*11:01; [7]) of 46.5 µM.
With IPTVMAFHL the Kd (HLA-B*07:02; [9]) was 0.596 µM, the Kd (HLA-B*51:01; [9]) was 5.51 µM and the Kd (HLA-B*53:01; [9]) was 0.0489 µM.
AEMMAPSMF was tested, and the Kd (HLA-B*15:03; [6]) was 0.0172 µM.
In the case of KLLEGEESRI, the Kd (HLA-A*68:02; source organism: Homo sapiens) is reported as no less than 60 µM.
Sequence FPYSIPATLL has a Kd (HLA-B*07:02; [10]) of 0.028 µM, a Kd (HLA-B*35:01; [10]) of 0.131 µM and a Kd (HLA-B*51:01; [10]) of 0.325 µM. It also gave a Kd (HLA-B*53:01; [10]) of 0.00997 µM.
LRYLLFGIK showed an IC50 (HLA-A*02:01 [2]; [11]) of no less than 825 µM, an IC50 (HLA-A*03:01; [11]) of 15.4 µM and an IC50 (HLA-A*11:01; [11]) of no less than 128 µM. The IC50 (HLA-A*24:02; [11]) was 13.6 µM.
With WLSLLVPFV the Kd (HLA-B*07:02; source organism: Hepatitis B virus) was no less than 35 µM.
TSVGKLVHQV was tested, and the Kd (HLA-A*68:02; source organism: Dengue virus 1 Brazil/97-11/1997) was 0.0371 µM.
ISTYPGNTF showed a Kd (HLA-B*15:03; [6]) of 0.000479 µM.
With FSPGTSGSPI the Kd (HLA-A*68:02; [12]) was 0.294 µM and the Kd (HLA-B*51:01; [12]) was 12.8 µM.
With VRKNFTSSF the Kd (HLA-B*15:03; [6]) was 0.192 µM.
RISDRATRK was tested, and the IC50 (HLA-A*03:01; [13]) was 1.86 µM and the IC50 (HLA-A*11:01; [13]) was 0.651 µM.
LGFLNEDHW was tested, and the Kd (HLA-B*57:01 [3]) was 0.172 µM.
MLMFIFTGI was tested, and the Kd (HLA-A*30:01) was 0.281 µM, the Kd (HLA-A*32:01; [6]) was 1.45 µM and the Kd (HLA-B*08:01; [6]) was 0.265 µM. For the same sequence, the Kd (HLA-B*15:01; [6]) was 1.41 µM and the Kd (HLA-B*15:03; [6]) was 1.01 µM.
Work on RPGYHTQTAG yielded a Kd (HLA-B*07:02; [12]) of 0.0021 µM.
In the case of KSISKSNAK, the IC50 (HLA-A*03:01; [8]) is reported as 3.02 µM, the IC50 (HLA-A*11:01; [8]) is reported as 1.68 µM and the Kd (HLA-A*31:01) is reported as 0.000454 µM. For the same sequence, the Kd (HLA-A*33:01) was no less than 33.9 µM and the Kd (HLA-A*68:01) was 0.101 µM.
With ASLTPKAQR the IC50 (HLA-A*03:01; source organism: Variola virus) was 2.32 µM and the IC50 (HLA-A*11:01; source organism: Variola virus) was 0.29 µM.
TTIAVSMANI was tested, and the Kd (HLA-A*26:01; [12]) was 3.51 µM and the Kd (HLA-A*68:02; [12]) was 0.00387 µM.
With STHKLSLTK the IC50 (HLA-A*02:01 [2]; source organism: Variola virus) was no less than 255 µM, the IC50 (HLA-A*03:01; source organism: Variola virus) was 2.93 µM and the IC50 (HLA-A*11:01; source organism: Variola virus) was 0.193 µM.
For IKGTSGTEK, the IC50 (HLA-A*03:01; [11]) was no less than 187 µM.
With LKSNADWFF the Kd (HLA-B*15:03; [8]) was 0.0102 µM.
Sequence SLSHDFTLV has a Kd (HLA-A*02:01 [4]) of 0.0126 µM, a Kd (HLA-A*02:02) of 0.000305 µM and a Kd (HLA-A*02:03) of 0.00165 µM. It also gave a Kd (HLA-A*02:06; [14]) of 0.00774 µM and a Kd (HLA-A*68:02; [14]) of 0.6 µM.
In the case of STLPETTVVRR, the Kd (HLA-B*07:02; source organism: Hepatitis B virus subtype adw2) is reported as no less than 35 µM.
IQYDRRSFF was tested, and the Kd (HLA-B*15:03; [8]) was 0.000154 µM.
For IVYSLVTTI, the Kd (HLA-A*30:01) was 0.016 µM, the Kd (HLA-A*32:01; [6]) was 0.0036 µM and the Kd (HLA-B*08:01; [6]) was 13.6 µM. It also gave a Kd (HLA-B*15:01; [6]) of 0.542 µM and a Kd (HLA-B*15:03; [6]) of 1.86 µM.
Work on YKVASAGISY yielded a Kd (HLA-B*15:01; [5]) of 0.00296 µM and a Kd (HLA-B*35:01; [5]) of 0.0704 µM.
For TPPGSRDPF, the Kd (HLA-B*07:02; [12]) was 9.88 µM and the Kd (HLA-B*35:01; [12]) was 0.16 µM.

Reference: the Immune Epitope Database (IEDB)
